Laboratory results taken from the supplement of paper PMC12042874.
± gives the uncertainty stated by the source.

Assay: amyloid nucleation score (Sup35N fusion, yeast selection) (log enrichment); library NNK3; higher = more nucleation; inactive = no reads after selection
Method in brief: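 The nucleation score, computed with DiMSum, is the log enrichment of output over input reads, centred on the mode score of non-aggregating sequences. Sequences with under 100 input reads were dropped. Reads were generated by Illumina sequencing of plasmid inserts from psi-negative yeast with Sup35N fused to peptides of 20 random codons, induced with 100 μM copper sulfate for 24 hours and grown 7 days at 30°C on medium lacking adenine and uracil.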

| Substance | amyloid nucleation score |
| --- | --- |
| PRNFVANPVELNKGKDFIPS | inactive |
| RGYGAAHQRRCQRIRNYYKY | inactive |
| LFSNNNCLNIWVWLV | 2.19 ± 0.081 |
| RHQHKRGAV | -0.982 ± 1.4 |
| GRTSWGRRR | inactive |
| TIISCFREKIGLSRM | inactive |
| KVRSVDCRNTSNKDHW | inactive |
| SIDDVDFSGTAKMSSSQRCT | inactive |
| FNTRQSNLKDDMVSFHDSDL | inactive |
| SFYMPTQKLMLFIVVKVKAT | inactive |
| NLRNDIYMTSICCE | inactive |
| DCAYMCNVYFLVLGSAKLFI | 1.27 ± 0.17 |
| GYFRWSRAFQLPWNSWSEWQ | inactive |
| GTDSFAIYSWKIRLLSERYP | inactive |
| IILLSGDSSSRIQEVKVGKK | inactive |
| LKVRLALLCRSEQRSPSTEV | inactive |
| ALESTMVWLSQRQGRFVHSL | -0.284 ± 0.7 |
| INSVSRGCINHFASVEGPCI | inactive |
| GSLFVI | inactive |
| FVQGYSFWYWVETYMFIRFV | inactive |
| ALALMFVEGCVIYMGIGC | 1.93 ± 0.076 |
| RYHYLSSLSMNVNTGELWMD | inactive |
| ALKVYADMIDYLWLRTFMSW | inactive |

| Substance | amyloid nucleation score |
| --- | --- |
| LGTTSYRV | inactive |
| HHLSSDVSVLAFCNLPESNR | 1.21 ± 0.17 |
| NIISNDLSEASIYNGFVCNR | inactive |
| MACKLSTRKSSNWGKHLLCY | inactive |
| GNLDTS | -0.668 ± 1 |
| FAYITHLKKYKSWTVPWTYY | inactive |
| SYSSIVCLGIDYRQAFWCIR | 1.8 ± 0.077 |
| SLCNGCMIK | inactive |
| RNFGYIDSKLWP | inactive |
| FRLYFYYYSNLFRHFCYNKS | inactive |
| SQFTEICTPVRHGSCCR | inactive |
| GHCEYVVCYVNCRFVQMSVR | 1.65 ± 0.093 |
| SSLWSNK | inactive |
| FFVMCARGHTMRSYTFFVK | inactive |
| LWFPVEGGYPPSDVKQKHIS | 0.086 ± 0.31 |
| LNFAHAKMFSFITMVVY | inactive |
| WTWGKAYDAMFLIVTFFCIF | inactive |
| SYGLTHMSKAIGDHRVVIAT | inactive |
| MYRLIVYT | inactive |
| QHWWSYWMFSGKRQCVVFPV | inactive |
| YFTYGRQCMVVLDCLVDRRG | inactive |
| SNFFRYIFYTRSQFSFQLIN | inactive |
| GVVKRQRLWTVGMNPKIEAW | inactive |

| Substance | amyloid nucleation score |
| --- | --- |
| EDGCRNVRLFTMVRSLMYK | inactive |
| VTFLHGCIDFAGSYSAGSSD | inactive |
| GPILL | inactive |
| AFDTILAEYLCYFLL | 1.7 ± 0.1 |
| VLRGHSMHRSMGLWLA | inactive |
| FVLFAYWHARPNTISRGCDH | inactive |
| YMSFFIFIPIFLCVNLDRVC | 2.38 ± 0.061 |
| YVILGIRGKGWVFYQRAP | inactive |
| NKYYVRSSFELVIVYA | 0.142 ± 0.32 |
| LQSYRDLQTRFFLFSAHTSL | inactive |
| GRSFCVAMVVIEGVLYRDLS | 0.441 ± 0.32 |
| NPFRGFLTIQCRPILRFPDK | inactive |
| LLIVNWVFRILVYRTTRGLR | inactive |
| SVLFSLYSSLSYV | 0.548 ± 0.2 |
| GDTHHCAADGV | 0.504 ± 0.24 |
| NGFCSASICREDCEMWNMQS | inactive |
| VYRYFASKIIKGIFSRCCTF | inactive |
| SGGLSSLILSCFHIFIIKTY | inactive |
| LFPSADLATITG | inactive |
| FTWYRR | inactive |
| ETQWFEI | inactive |
| RKLFGSHS | inactive |
| CSILACSA | inactive |

| Substance | amyloid nucleation score |
| --- | --- |
| DRTHDSSDSCGCCNNL | inactive |
| SIPNTTFIFSLL | 1.19 ± 0.08 |
| IVDNYVVAALLVVLS | inactive |
| RDGSM | inactive |
| TSKVGLACKTIYVERSFWYF | inactive |
| SGTNNIVLLGHFVDFLEGVL | inactive |
| TVLSIIVFSYLLVCYHLVSV | inactive |
| ERSITGYNPPRRV | -0.561 ± 0.82 |
| EDYRVGW | inactive |
| IAVERMIGLLPGSYF | inactive |
| NDRIYCGGDYPTNH | inactive |
| LEYKYVGLSKFDALIRQWFL | inactive |
| MLLIVTSCYISAPNAVSPGW | -0.563 ± 0.84 |
| NLGKTLNTLYLVFTFRDVF | inactive |
| FLNLHTVCC | inactive |
| ALRARERWLRLPALAWKVMY | inactive |
| RMRLSWVMHSV | inactive |
| GCKMVGRICSDIICSVGVME | 0.988 ± 0.16 |
| YVDCYRFAVMQEFPCQYRGD | inactive |
| DYKMVRYWNLE | inactive |
| SYNCA | inactive |
| LSGPRYLVVKSGCACRDSFR | inactive |
| RKVNHFNE | inactive |

| Substance | amyloid nucleation score |
| --- | --- |
| VREFYN | inactive |
| GVDLDLLICGYMLWMDYCSG | inactive |
| YQGKLI | inactive |
| VRPLVDYMMQNM | inactive |
| EHCSGNFRLNLSCDEVHIWM | 2.99 ± 0.063 |
| LFCAV | inactive |
| KSSIMKGKLTHRGSQWFASQ | inactive |
| WRCLYYMQAYSSN | inactive |
| VMIVRLYVIYPMFEVKP | inactive |
| CRGLLYISVNYNMILFQHTR | inactive |
| CCRVRTS | inactive |
| LDSAYRTVDGSICTTSYREH | inactive |
| DHVAG | inactive |
| TTQILAL | inactive |
| MCYVVNAHGVASQ | inactive |
| SWKGGLQTDDGSKGS | inactive |
| LSVRSTLARLPSGVIMMRSM | inactive |
| RCNALSLWIYNEKSWNNTWY | 1.74 ± 0.084 |
| AHGHISCLLTYTAYWYCCV | 0.502 ± 0.19 |
| IFCGPCLSSYRPKWTGMTSY | 2.12 ± 0.06 |
| NITPRQMWVRWRQCMMGTGL | inactive |
| LIWIVVGLSCYSTRL | 1.09 ± 0.13 |
| HLLTAVILITIGVNRVTWWG | inactive |

| Substance | amyloid nucleation score |
| --- | --- |
| LRSRKWSSTVSCEYSANGLR | inactive |
| SRWTEACI | inactive |
| KYANILSFTPFNQQSI | inactive |
| IPFFIGCHNKCRVYLWVAVG | inactive |
| EFGVVVNEFYGDVY | inactive |
| IREFSNI | inactive |
| KNVFGSSFLLVVSYCNISAF | 1.95 ± 0.091 |
| SVWMGVEPGHYLYQRVLGLV | inactive |
| NDFSPVRWTVLDTDDPK | inactive |
| LFDLRDNVCSRVSRNYTAGA | inactive |
| TCNNMYCWV | 2.3 ± 0.075 |
| WILYSMMQLSMMFKSMYSVT | inactive |
| RVKRYSMELGIFLDLRVT | inactive |
| MVLKLNESSMIFKDTTYP | inactive |
| RSDSADLIKG | inactive |
| LNDDRISSGYAASIVKGLLT | -0.873 ± 1.4 |
| RMFNDSLNRV | inactive |
| TCLEVYGSDMFRTKIRNHDK | inactive |
| FQKQLASRCTSWSWTRWLVQ | inactive |
| FTRSLETYYFGKNDVWFSLS | inactive |
| CIFYDSLVDWDHHYSHKGWH | inactive |
| PLLLHVST | inactive |
| SFRSAVRCTS | inactive |

| Substance | amyloid nucleation score |
| --- | --- |
| VRVSRNGSVLY | inactive |
| VFKCCVLFGGSRWFTLFLWF | inactive |
| RILERVATQWRYGRCPMCDR | inactive |
| CMMWNRGFT | inactive |
| LSDFMLVAILTV | inactive |
| NTGYVVLHKDFHSLASSTKV | inactive |
| DRGRMCMNAFPFLCWIWFHG | inactive |
| WVGNTVKHKLGLVGNCGSCA | -0.73 ± 1.9 |
| SGSNILMEWNCYRARLCRGS | inactive |
| LKSDI | inactive |
| ISSRGSMTRL | inactive |
| RRYEFLGGTEGSARRLDSKP | inactive |
| PLPDRGSFFTVSNLNEWSAV | inactive |
| NVLALECVRDWT | inactive |
| ANDVISYTFFLSEERG | inactive |
| PWCLNWVITDDCRFYCGLRV | inactive |
| YISSFKFRLSCLRYQIVNSV | inactive |
| AVGNCSSWGYGSSTLP | inactive |
| FNMFVKNN | inactive |
| IDVMEYMLASYRVSWYRGLA | inactive |
| TRMEICCKGYKGNVPKFAVY | inactive |
| SFVQEMGDPPYHKQSQQLRS | inactive |
| VMGMDIIRIPS | inactive |
